The numbers were not newly measured in PMC11301627, which cites them from elsewhere.

The target of this series is Asp133 (UniProt position 133, SNFHFDTTAAH). As to the kind of experiment: kinetics. As to conditions: wild-type enzyme, steady-state reaction with L-Trp.

For “Tryptophan indole-lyase (TIL, tryptophanase) (Proteus vulgaris)”, the pKa – broadly, the negative logarithm of the acid dissociation constant – was 5.3.
